Numbering of substitutions follows the chain as printed. Names may count otherwise.
Legend:
VirB (Shigella flexneri) = target: T1, VirB (Shigella flexneri) (UniProt P0A247); test: BLI; details: BLI: 25 mM HEPES/NaOH pH 7.5, 150 mM (low stringency) or 500 mM (high stringency) NaCl, 5 mM MgCl2, 1 mM DTT, 10 uM BSA, 0.01% Tween 20, +/-1 mM nucleotide …
T1 sequence: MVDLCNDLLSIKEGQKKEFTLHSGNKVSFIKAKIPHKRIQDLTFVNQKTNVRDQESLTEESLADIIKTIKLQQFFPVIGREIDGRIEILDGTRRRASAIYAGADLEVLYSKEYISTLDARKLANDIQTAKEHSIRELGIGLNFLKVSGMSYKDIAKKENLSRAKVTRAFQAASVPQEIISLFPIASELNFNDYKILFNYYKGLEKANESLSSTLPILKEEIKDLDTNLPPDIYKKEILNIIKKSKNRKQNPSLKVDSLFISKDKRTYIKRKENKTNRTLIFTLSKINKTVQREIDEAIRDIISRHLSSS

VirB [1] = target: T2, VirB (Shigella flexneri, UniProt P0A247); test: isothermal titration calorimetry; assay type: binding
T2 construct: purified recombinant wild-type VirB, His6-SUMO tag removed; encoded on virulence plasmid pINV

VirB [2] = target: T2, VirB; test: microscale thermophoresis; supported by HDX-MS, crosslinking and weak CTPase activity; assay type: binding
VirB [3] = target: T2, VirB; test: isothermal titration calorimetry (MST KD […]); assay type: binding
[4] = target: the molecule itself; test: mass photometry; ~100 nM protein in high-stringency buffer (25 mM HEPES/NaOH pH 7.5, 5 mM MgCl2, 500 mM NaCl, 1 mM DTT), without or with 1 mM CTP; oligomeric state in solution
[5] = target: the molecule itself; test: cross-linking; 10 µM protein, room temperature, 25 mM HEPES/NaOH pH 7.5, 500 mM NaCl, 5 mM MgCl2, 0.1 mM EDTA; alone, with 1 mM CTP and/or 1 µM virS DNA oligonucleotide; 1 mM BMOE for 1 min, SDS-PAGE; homodimerization of the two N-terminal NBDs within the VirB dimer (clamp closure)
VirB [6] = target: T3, VirB (Shigella flexneri, UniProt P0A247 1-309); test: BLI; 150 mM NaCl, without and with CTP; BLI: 25 mM HEPES/NaOH pH 7.5, 150 mM (low stringency) or 500 mM (high stringency) NaCl, 5 mM MgCl2, 1 mM DTT, 10 uM BSA, 0.01% Tween 20, +/-1 mM nucleotide; temperature not stated; details: protein: recombinant; tags: none (His6-SUMO removed by Ulp1); chain copies: 2; label: 5' biotin-TEG on strand 1; blunt; one end open
T3 sequence: T1 sequence

## AATATATTCAATTAATAAATTTAGAAACTTGAGCCTGTTAACATAATCAAATTTTCTTTTGCTGTACATAATATGTACCTCGTGAGCATATGTAGTGCTCGTTTCATCATGAAATCCCACAAGATAAAGTGCCTGATGTATCAGGCTCGGAGTGTTATAGAAAAAGAGAGAACCCTGTTGAATAAGTATCTTTTTTGTTGTAAAACGAGGTACAA (double strand) [closed virS DNA (215 bp)]
VirB (Shigella flexneri)
  Kd: 2.3 µM

## Nc1ccn([C@@H]2O[C@H](COP(=O)(O)OP(=O)(O)OP(O)(O)=S)[C@@H](O)[C@H]2O)c(=O)n1 [CTPγS]
VirB [1]
  Kd: ~12 µM

## NdeI-opened virS DNA (from 215 bp)
VirB (Shigella flexneri)
  binding signal (fraction of maximum signal on closed DNA): 0.25

## Nc1ccn([C@@H]2O[C@H](COP(=O)(O)OP(=O)(O)OP(=O)(O)O)[C@@H](O)[C@H]2O)c(=O)n1 [CTP]
VirB [2]
  Kd: 11 µM

## Nc1ccn([C@@H]2O[C@H](COP(=O)(O)OP(=O)(O)O)[C@@H](O)[C@H]2O)c(=O)n1 [CDP]
VirB [3]
  Kd: ~91 µM

B1: VirB from Shigella flexneri (wild type) (natural protein)
chain: T1 sequence
notes: VirB of S. flexneri, UniProt P0A247; Native C5 was used for BMOE cross-linking; also called WT; wild-type VirB; source: E. coli Rosetta(DE3)pLysS, purified (IMAC, Ulp1 cleavage of the His6-SUMO tag, second IMAC, SEC); not shown: His6, N-terminal, cleaved; SUMO, N-terminal, cleaved
[4]
  stoichiometry N: 2

B2: VirB-C5S/Q15C (natural protein)
chain: T1 sequence with C5S, Q15C
notes: VirB of S. flexneri, UniProt P0A247, lacking the native cysteine at position 5 and carrying an engineered cysteine at position 15; source: E. coli Rosetta(DE3)pLysS, purified (IMAC, Ulp1 cleavage of the His6-SUMO tag, second IMAC, SEC); not shown: His6, N-terminal, cleaved; SUMO, N-terminal, cleaved
[5]
  binding result: binds

B3: open virS oligonucleotide (23 bp) (dsDNA)
DNA 1: GCTCGTTTCATCATGAAATCCCA
DNA 2: TGGGATTTCATGATGAAACGAGC
VirB [6]
  binding result: binds

— paper PMC10770331, “The virulence regulator VirB from Shigella flexneri uses a CTP-dependent switch mechanism to activate gene expression” (Nature Communications, 2024)
